± gives the standard deviation of the averaged measurements.

The data set deals with VchCAST RNA-guided transposition machinery (E. coli BL21(DE3) host, lacZ target). In words: relative integration efficiency (T-LR orientation) vs wild-type transposon end (log2 (normalized fold change)); transposon end mutated: right end (5 bp flank + 75 bp right end); higher = more efficient transposition. The method in brief:
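Relative integration efficiency is a fold change of output over input barcode abundance, normalised to reference barcodes and log-transformed. Input plasmids and genomic integration junctions were PCR-amplified and Illumina-sequenced from E. coli BL21(DE3) co-transformed with a T7-driven effector plasmid and pUC57 donor pools of 1549 left-end or 1849 right-end transposon variants. Plating was done with 0.1 mM IPTG at 37°C for 18 h, with two biological output replicates and four reference barcodes.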
In the case of “ACATTTGTTGATACAACCATAAAATGATAATTACACCCATAAATTGATAATTATCACACCCATAAATTGAGCGGTAAGAGGATCATAGTCAGACCAACATTGCTACGACCCGTATTCGCACCGACAC”, the “relative integration efficiency (log2)” value was found to be 1.6 ± 0.023.

Take “ACATTTGTTGATACACCCATAAATTGATATTGCCAACCATATATTGATATCTCTCACAACCATAAAGTGATATTTACTCTGATCATAGTCAGACCAACATTGCTACGACCCGTATTCGCACCGACAC”: the “relative integration efficiency (log2)” value is -0.365 ± 0.021.

Take “ACATTTGTGTCGACAACCATAAAATGATAATTACACCCATAAATTGATAATTATCACACCCATAAATTGATATTGCCTCTGATCATAGTCAGACCAACATTGCTACGACCCGTATTCGCACCGACAC”: the “relative integration efficiency (log2)” value was -2.89 ± 0.57.

For “ACATTTGTTGATACAACCATCAAATGGTAATTACACCCCTACATTGATAATTATCACACCCAATTTAACTATAACGCTCTGATCATAGTCAGACCAACATTGCTACGACCCGTATTCGCACCGACAC”, the “relative integration efficiency (log2)” value is -3.18 ± 1.1.

As to “ACATTTGTTCATACAACCATAAAATGATAATTACACCCATAAATGGATAATTATCACACCCAATTTAACTATAACGCTCTGATCATAGTCAGACCAACATTGCTACGACCCGTATTCGCACCGACAC”, the “relative integration efficiency (log2)” value is -0.42 ± 0.41.

For the sequence “ACATTTGTTGATACAACCAGAAAATGATAATTACACCCAGAAATTGATAATTATCACACCCAGAAATTGATATTGCCTCTGATCATAGTCAGACCAACATTGCTACGACCCGTATTCGCACCGACAC”, the “relative integration efficiency (log2)” value was -3.58 ± 1.1.

In the case of “ACATTTGTTGATACAACCAGCCCATGATAATTACACCCATAAATTGATAATTATCACACCCATAAATTGATATTGCCTCTGATCATAGTCAGACCAACATTGCTACGACCCGTATTCGCACCGACAC”, the “relative integration efficiency (log2)” value was -3.69 ± 0.75.

As for “ACATTTGTTGATACAACCATAATTACATAATTACACCCATAAATTGATAATTATCACACCCATAAATTGATATTGCCTCTGATCATAGTCAGACCAACATTGCTACGACCCGTATTCGCACCGACAC”, the “relative integration efficiency (log2)” value is -2.85 ± 0.16.

Turning to “ACATTTCTTCATACAACCATAAAATGATAATTACACCCATAAATGGATAATTATCACACCCAATTTAACTATAACGCTCTGATCATAGTCAGACCAACATTGCTACGACCCGTATTCGCACCGACAC”, the “relative integration efficiency (log2)” value is -2.86 ± 0.049.

In the case of “ACATTTGTTGATACAACCATAAGTTGATATTTTCACCCATAAATTGATAATTATCAGTGGGTATTTAACTATAACGCTCTGATCATAGTCAGACCAACATTGCTACGACCCGTATTCGCACCGACAC”, the “relative integration efficiency (log2)” value came out at 2.55 ± 0.051.

As to “ACATTTGTTGATACAACCATAAAATGATAATTAATAACACCCATAAATTGATAATTATCAACAAACGCCCGGTCGCGGTACTCTGATCATAGTCAGACCAACATTGCTACGACCCGTATTCGCACCG”, the “relative integration efficiency (log2)” value turned out to be 0.892 ± 0.16.

Regarding “ACATTTGTTGATACTACCATAAAATGATAATTACTCCCATAAATTGATAATTATCACTCCCATAAATTGATATTGCCTCTGATCATAGTCAGACCAACATTGCTACGACCCGTATTCGCACCGACAC”, the “relative integration efficiency (log2)” value is -0.0376 ± 0.31.

Consider “ACATTTGTTCATACAACCATAAAACGATAATTACACCCATAAATTCATAATTATCACACCCAATTTAACTATAACGCTCTGATCATAGTCAGACCAACATTGCTACGACCCGTATTCGCACCGACAC”, for which the “relative integration efficiency (log2)” value is -0.844 ± 0.015.

As to “ACATTTGTTGATACAACCATAAAATGATAATTACACCCATAAATTGATAATTATCACACCCATAAATTGATATTGCCTCTCCGACCCGGAAGAGGGCGCCTAGAATTGGGAGTGGTCGCACCGACAC”, the “relative integration efficiency (log2)” value was determined as 0.134 ± 0.075.

Take “ACATTTGTTGATACAACCATAAAATGATAATTACACCCATAAATTGATAATTATCACACCCATAAATTGATATTGCCTCTGATCATAGTCTTGTGAGCGGATAACAAAGACCAACATGCACCGACAC”: the “relative integration efficiency (log2)” value is -0.0553 ± 0.18.

With “ACATTTGTTGATACACCCATAAATTGATAATTACACCCATAAATTGATAATTATCACACCCATAAATTGATAATTACTCTGATCATAGTCAGACCAACATTGCTACGACCCGTATTCGCACCGACAC”, the “relative integration efficiency (log2)” value was -0.257 ± 0.33.

Regarding “ACATTTGTTGATACAACCATAAAATGATAATTACTCTGATCATAGTCAGACCAACATTGCTACGACCCGTATTCGCACCGACACAACGACTATATTTACACCCATAAATTGATAATTATCAGTGGGT”, the “relative integration efficiency (log2)” value was found to be 1.81 ± 0.28.

As for “ACATTTGTTGATACAACCATTAAATGGTAATTACACCCATAAATTGATAATTATCACACCCAATTTAACTATAACGCTCTGATCATAGTCAGACCAACATTGCTACGACCCGTATTCGCACCGACAC”, the “relative integration efficiency (log2)” value is 1.674 ± 0.011.

In the case of “ACATTTGTTGATACAACCATAAAATGATAAATACACCCATAAATTGATAAATATCACACCCATAAATTGATATAGCCTCTGATCATAGTCAGACCAACATTGCTACGACCCGTATTCGCACCGACAC”, the “relative integration efficiency (log2)” value amounted to 0.037 ± 0.84.

As for “ACATTTGTTGATACAACCATTAAATGGTAATTCCACCCATATATTGATAATTATCACACCCAATTTAACTATAACGCTCTGATCATAGTCAGACCAACATTGCTACGACCCGTATTCGCACCGACAC”, the “relative integration efficiency (log2)” value worked out at 1.37 ± 0.13.

As to “ACATTTGTTGATACAACCATAAAATGATAATTACTCTGATCACCCATAAATTGATAATTATCAGTGGGTATTTAACTATAACGCATAGTCAGACCAACATTGCTACGACCCGTATTCGCACCGACAC”, the “relative integration efficiency (log2)” value stood at 0.977 ± 0.086.

As for “ACATTTGTTGATACAACCATAAAATGATAATTACCCCCATAAATTGATAATGATGACACCGAATTTAACTATAACGCTCTGATCATAGTCAGACCAACATTGCTACGACCCGTATTCGCACCGACAC”, the “relative integration efficiency (log2)” value is 2.16 ± 0.067.

For the sequence “ACATTTGTTGATACAACCATAAAGTGATATTTACAACCATAAAGTGATATTTATCACACCCATAAATTGATATTGCCTCTGATCATAGTCAGACCAACATTGCTACGACCCGTATTCGCACCGACAC”, the “relative integration efficiency (log2)” value is -0.0332 ± 0.27.

With “ACATTTGTTGATACAACCATAAAATGATAATTACACCCATAAATTGTAAATTATCACACCCATAAATTGATATTGCCTCTGATCATAGTCAGACCAACATTGCTACGACCCGTATTCGCACCGACAC”, the “relative integration efficiency (log2)” value is -0.553 ± 0.24.

For “ACATTTGTTGATACAACCATAAAAGGATAATTACACCCATCAATTGATAATTATCACACCCCATTTAACTATAACGCTCTGATCATAGTCAGACCAACATTGCTACGACCCGTATTCGCACCGACAC”, the “relative integration efficiency (log2)” value was 1.27 ± 0.19.

As for “ACATTTGTTTATACAACCATAAAATGATAATTACACCCATAAATTTATAATTATCACACCCAATTTAACTATAACGCTCTGATCATAGTCAGACCAACATTGCTACGACCCGTATTCGCACCGACAC”, the “relative integration efficiency (log2)” value was 0.00132 ± 0.14.

For “ACATTTGTTGATACATGCATAAAATGATAATTACACCCATAAATTGATAATTATCACACCCATAAATTGATATTGCCTCTGATCATAGTCAGACCAACATTGCTACGACCCGTATTCGCACCGACAC”, the “relative integration efficiency (log2)” value was -0.66 ± 0.08.

As to “ACATTTGTTGATACCACCATCAAATGGTAATTACACCCCTACATTGATAATTATCACACCCAATTTAACTATAACGCTCTGATCATAGTCAGACCAACATTGCTACGACCCGTATTCGCACCGACAC”, the “relative integration efficiency (log2)” value worked out at 0.00776 ± 0.29.

In the case of “ACATTTGTTGATACAACCATAAAGTGATATTTACAACCATAAAATGATAATTATCACACCCATAAATTGATATTGCCTCTGATCATAGTCAGACCAACATTGCTACGACCCGTATTCGCACCGACAC”, the “relative integration efficiency (log2)” value is -0.097 ± 0.68.

In the case of “ACATTTGTTGATACAACCATAAAATGATAATTACACCCATAAATTGATAATTATCACACCCATAAATTGATATTGCCTCTGATCATAGTCAACTGTATATAAATACAGTTCAGACCAGCACCGACAC”, the “relative integration efficiency (log2)” value is 0.274 ± 0.022.

For “ACATTTGTTGATACAACCATAAAATGATAATTACACCCATAAATTGATAATTAGAACACCCATAAATTGATATTGCCTCTGATCATAGTCAGACCAACATTGCTACGACCCGTATTCGCACCGACAC”, the “relative integration efficiency (log2)” value is -0.0187 ± 0.33.

“ACATTTGTTGATACAACCATAAAATGATAATTCACCCATAAATTGATAATTATCACACCCCAATTTAACTATAACGCTCTGATCATAGTCAGACCAACATTGCTACGACCCGTATTCGCACCGACAC”: the “relative integration efficiency (log2)” value came to 1.7 ± 0.066.

Values taken from the supplement of paper PMC10201428.
